US20250114463A1, “LIVER-TARGETED DRUG AND USE THEREOF” (HANMI PHARM. CO., LTD., priority 2021, published 2025)
Bridges are numbered along the chain shown (N, C = ends). Where no end group is shown, it is not given here. [ ]: non-standard residue; d: D form. The star is where a group is joined. Acetyl(2-(4-imidazolyl)) = O=C(Cc1c[nH]cn1)*; Aib = CC(C)(N)C(=O)O

T1: human GIP receptor (human, UniProt P48546 22-466)
T1 sequence (looked up): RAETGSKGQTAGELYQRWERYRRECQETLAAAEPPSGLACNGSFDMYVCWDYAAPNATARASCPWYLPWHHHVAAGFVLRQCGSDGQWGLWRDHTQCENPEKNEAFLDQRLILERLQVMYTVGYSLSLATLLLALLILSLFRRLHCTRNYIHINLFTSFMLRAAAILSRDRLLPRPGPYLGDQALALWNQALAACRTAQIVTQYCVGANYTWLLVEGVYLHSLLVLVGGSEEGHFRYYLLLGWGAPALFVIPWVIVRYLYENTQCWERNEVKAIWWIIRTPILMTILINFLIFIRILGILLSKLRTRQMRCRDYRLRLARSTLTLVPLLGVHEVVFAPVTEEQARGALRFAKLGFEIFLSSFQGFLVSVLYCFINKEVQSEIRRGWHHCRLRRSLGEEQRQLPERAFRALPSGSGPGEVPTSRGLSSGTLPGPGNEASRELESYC


molecular target: human GLP-1 receptor (human, UniProt P43220 24-463); experiment: cell-based or functional assay

Binder | in vitro Activity Compared to Native Peptide (%), vs GLP-1
Y[Aib]QGTFTSDYSKALDEKAAKEFVQWLLDQHPSSGQPPPSC (bridge 16-20; not fully specified (C-terminus); also: ring type not given here) [triple agonist of SEQ ID NO: 100] | 42.2%
Y[Aib]QGTFTSDYSKALDEKAAKDFVNWLLDQHPSSGQPPPSC (bridge 16-20; not fully specified (C-terminus); also: ring type not given here) [triple agonist of SEQ ID NO: 102] | 23.3%
Y[Aib]QGTFTSDYSKYLDEKRAKEFVQWLLDHCPSSGQPPPS-NH2 (bridge 16-20) [triple agonist of SEQ ID NO: 96] | 34.4%
[Acetyl(2-(4-imidazolyl))][Aib]QGTFTSDYSKYLDEKRQKEFVNWLLAQC (bridge 16-20; not fully specified (C-terminus)) [triple agonist of SEQ ID NO: 86] | 28.4%
[Acetyl(2-(4-imidazolyl))][Aib]QGTFTSDYSIAMDEIHQKDFVNWLLNTKC (bridge 16-20; not fully specified (C-terminus)) [triple agonist of SEQ ID NO: 94] | 0.5%
[Acetyl(2-(4-imidazolyl))][Aib]EGTFTSDYSIAMDEIHQKDFVNWLLAQKC (bridge 16-20; not fully specified (C-terminus)) [triple agonist of SEQ ID NO: 90] | 7.4%
Y[Aib]QGTFTSDYSKYLDEKRAKEFVQWLLCHHPSSGQPPPS (bridge 16-20; not fully specified (C-terminus)) [triple agonist of SEQ ID NO: 95] | 2.1%
[Acetyl(2-(4-imidazolyl))][Aib]EGTFTSDYSIAMDEIHQKDFVDWLLAEKC (bridge 16-20; not fully specified (C-terminus)) [triple agonist of SEQ ID NO: 91] | 31.9%
Y[Aib]QGTFTSDYSKYLDEKRAKEFVQWLLDCHPSSGQPPPS (bridge 16-20; not fully specified (C-terminus)) [triple agonist of SEQ ID NO: 97] | 10.5%
[Acetyl(2-(4-imidazolyl))][Aib]QGTFTSDYSKYLDEKRQKEFVQWLLDTKC (bridge 16-20; not fully specified (C-terminus)) [triple agonist of SEQ ID NO: 89] | 7.1%
[Acetyl(2-(4-imidazolyl))]GEGTFISDYSIQLDEIAVQDFVEWLLAQKPSSGAPPPSHG-NH2 [triple agonist of SEQ ID NO: 13] | < 0.1%
[Acetyl(2-(4-imidazolyl))][Aib]EGTFTSDYSIAMDEIHQKDFVNWLLAQC (bridge 16-20; not fully specified (C-terminus)) [triple agonist of SEQ ID NO: 83] | 47.3%

molecular target: human GCG receptor (human, UniProt P47871 26-477); experiment: cell-based or functional assay
Sequence (P47871 26-477): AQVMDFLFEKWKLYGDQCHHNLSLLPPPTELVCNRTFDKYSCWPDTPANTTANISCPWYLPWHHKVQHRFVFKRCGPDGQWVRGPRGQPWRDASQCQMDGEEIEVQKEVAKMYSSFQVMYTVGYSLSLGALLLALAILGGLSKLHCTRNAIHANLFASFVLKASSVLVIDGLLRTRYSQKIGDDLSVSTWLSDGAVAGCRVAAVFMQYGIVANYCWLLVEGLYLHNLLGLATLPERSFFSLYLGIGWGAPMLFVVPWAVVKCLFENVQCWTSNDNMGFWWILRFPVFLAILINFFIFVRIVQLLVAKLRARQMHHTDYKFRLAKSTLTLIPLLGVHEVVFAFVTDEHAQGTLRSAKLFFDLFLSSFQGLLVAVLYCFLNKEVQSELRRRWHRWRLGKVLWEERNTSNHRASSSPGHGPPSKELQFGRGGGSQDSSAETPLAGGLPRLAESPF

Binder | in vitro Activity Compared to Native Peptide (%), vs Glucagon
Y[Aib]QGTFTSDYSKALDEKAAKEFVQWLLDQHPSSGQPPPSC (bridge 16-20; not fully specified (C-terminus); also: ring type not given here) [triple agonist of SEQ ID NO: 100] | 12.7%
Y[Aib]QGTFTSDYSKALDEKAAKDFVNWLLDQHPSSGQPPPSC (bridge 16-20; not fully specified (C-terminus); also: ring type not given here) [triple agonist of SEQ ID NO: 102] | 29.5%
Y[Aib]QGTFTSDYSKYLDEKRAKEFVQWLLDHCPSSGQPPPS-NH2 (bridge 16-20) [triple agonist of SEQ ID NO: 96] | 195%
[Acetyl(2-(4-imidazolyl))][Aib]QGTFTSDYSKYLDEKRQKEFVNWLLAQC (bridge 16-20; not fully specified (C-terminus)) [triple agonist of SEQ ID NO: 86] | 0.4%
[Acetyl(2-(4-imidazolyl))][Aib]QGTFTSDYSIAMDEIHQKDFVNWLLNTKC (bridge 16-20; not fully specified (C-terminus)) [triple agonist of SEQ ID NO: 94] | < 0.1%
[Acetyl(2-(4-imidazolyl))][Aib]EGTFTSDYSIAMDEIHQKDFVNWLLAQKC (bridge 16-20; not fully specified (C-terminus)) [triple agonist of SEQ ID NO: 90] | < 0.1%
Y[Aib]QGTFTSDYSKYLDEKRAKEFVQWLLCHHPSSGQPPPS (bridge 16-20; not fully specified (C-terminus)) [triple agonist of SEQ ID NO: 95] | 0.4%
[Acetyl(2-(4-imidazolyl))][Aib]EGTFTSDYSIAMDEIHQKDFVDWLLAEKC (bridge 16-20; not fully specified (C-terminus)) [triple agonist of SEQ ID NO: 91] | 16.8%
Y[Aib]QGTFTSDYSKYLDEKRAKEFVQWLLDCHPSSGQPPPS (bridge 16-20; not fully specified (C-terminus)) [triple agonist of SEQ ID NO: 97] | 62.8%
[Acetyl(2-(4-imidazolyl))][Aib]QGTFTSDYSKYLDEKRQKEFVQWLLDTKC (bridge 16-20; not fully specified (C-terminus)) [triple agonist of SEQ ID NO: 89] | 0.7%
[Acetyl(2-(4-imidazolyl))]GEGTFISDYSIQLDEIAVQDFVEWLLAQKPSSGAPPPSHG-NH2 [triple agonist of SEQ ID NO: 13] | < 0.1%
[Acetyl(2-(4-imidazolyl))][Aib]EGTFTSDYSIAMDEIHQKDFVNWLLAQC (bridge 16-20; not fully specified (C-terminus)) [triple agonist of SEQ ID NO: 83] | 1.3%

molecular target: T1, human GIP receptor; experiment: cell-based or functional assay

Binder | in vitro Activity Compared to Native Peptide (%), vs GIP
Y[Aib]QGTFTSDYSKALDEKAAKEFVQWLLDQHPSSGQPPPSC (bridge 16-20; not fully specified (C-terminus); also: ring type not given here) [triple agonist of SEQ ID NO: 100] | 118%
Y[Aib]QGTFTSDYSKALDEKAAKDFVNWLLDQHPSSGQPPPSC (bridge 16-20; not fully specified (C-terminus); also: ring type not given here) [triple agonist of SEQ ID NO: 102] | 58%
Y[Aib]QGTFTSDYSKYLDEKRAKEFVQWLLDHCPSSGQPPPS-NH2 (bridge 16-20) [triple agonist of SEQ ID NO: 96] | 5.2%
[Acetyl(2-(4-imidazolyl))][Aib]QGTFTSDYSKYLDEKRQKEFVNWLLAQC (bridge 16-20; not fully specified (C-terminus)) [triple agonist of SEQ ID NO: 86] | 0.2%
[Acetyl(2-(4-imidazolyl))][Aib]QGTFTSDYSIAMDEIHQKDFVNWLLNTKC (bridge 16-20; not fully specified (C-terminus)) [triple agonist of SEQ ID NO: 94] | < 0.1%
[Acetyl(2-(4-imidazolyl))][Aib]EGTFTSDYSIAMDEIHQKDFVNWLLAQKC (bridge 16-20; not fully specified (C-terminus)) [triple agonist of SEQ ID NO: 90] | < 0.1%
Y[Aib]QGTFTSDYSKYLDEKRAKEFVQWLLCHHPSSGQPPPS (bridge 16-20; not fully specified (C-terminus)) [triple agonist of SEQ ID NO: 95] | < 0.1%
[Acetyl(2-(4-imidazolyl))][Aib]EGTFTSDYSIAMDEIHQKDFVDWLLAEKC (bridge 16-20; not fully specified (C-terminus)) [triple agonist of SEQ ID NO: 91] | 0.3%
Y[Aib]QGTFTSDYSKYLDEKRAKEFVQWLLDCHPSSGQPPPS (bridge 16-20; not fully specified (C-terminus)) [triple agonist of SEQ ID NO: 97] | 2.6%
[Acetyl(2-(4-imidazolyl))][Aib]QGTFTSDYSKYLDEKRQKEFVQWLLDTKC (bridge 16-20; not fully specified (C-terminus)) [triple agonist of SEQ ID NO: 89] | < 0.1%
[Acetyl(2-(4-imidazolyl))]GEGTFISDYSIQLDEIAVQDFVEWLLAQKPSSGAPPPSHG-NH2 [triple agonist of SEQ ID NO: 13] | < 0.1%
[Acetyl(2-(4-imidazolyl))][Aib]EGTFTSDYSIAMDEIHQKDFVNWLLAQC (bridge 16-20; not fully specified (C-terminus)) [triple agonist of SEQ ID NO: 83] | 0.4%
